In PMC2835468 (Matrix biology : journal of the International Society for …, 2009):

T1: ADAMTS4-2 (human ADAMTS-4 deletion mutant, C-terminal FLAG-tag) (human, UniProt O75173 213-685)
T1 sequence (looked up): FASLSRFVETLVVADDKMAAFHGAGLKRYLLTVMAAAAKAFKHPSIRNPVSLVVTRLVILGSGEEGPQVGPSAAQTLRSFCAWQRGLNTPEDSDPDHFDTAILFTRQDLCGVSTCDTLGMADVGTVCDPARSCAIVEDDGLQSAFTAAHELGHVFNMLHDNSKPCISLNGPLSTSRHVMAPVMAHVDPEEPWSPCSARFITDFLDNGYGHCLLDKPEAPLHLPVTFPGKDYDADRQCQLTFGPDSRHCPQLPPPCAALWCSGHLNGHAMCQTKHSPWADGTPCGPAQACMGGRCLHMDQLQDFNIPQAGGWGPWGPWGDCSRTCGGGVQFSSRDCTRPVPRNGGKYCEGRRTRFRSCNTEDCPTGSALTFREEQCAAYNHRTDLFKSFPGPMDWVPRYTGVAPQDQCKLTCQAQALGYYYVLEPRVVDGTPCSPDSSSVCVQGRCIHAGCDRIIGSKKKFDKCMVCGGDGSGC

T2: ADAMTS5-2 (human ADAMTS-5 deletion mutant, C-terminal FLAG-tag) (human, UniProt Q9UNA0 262-874)
T2 sequence (looked up): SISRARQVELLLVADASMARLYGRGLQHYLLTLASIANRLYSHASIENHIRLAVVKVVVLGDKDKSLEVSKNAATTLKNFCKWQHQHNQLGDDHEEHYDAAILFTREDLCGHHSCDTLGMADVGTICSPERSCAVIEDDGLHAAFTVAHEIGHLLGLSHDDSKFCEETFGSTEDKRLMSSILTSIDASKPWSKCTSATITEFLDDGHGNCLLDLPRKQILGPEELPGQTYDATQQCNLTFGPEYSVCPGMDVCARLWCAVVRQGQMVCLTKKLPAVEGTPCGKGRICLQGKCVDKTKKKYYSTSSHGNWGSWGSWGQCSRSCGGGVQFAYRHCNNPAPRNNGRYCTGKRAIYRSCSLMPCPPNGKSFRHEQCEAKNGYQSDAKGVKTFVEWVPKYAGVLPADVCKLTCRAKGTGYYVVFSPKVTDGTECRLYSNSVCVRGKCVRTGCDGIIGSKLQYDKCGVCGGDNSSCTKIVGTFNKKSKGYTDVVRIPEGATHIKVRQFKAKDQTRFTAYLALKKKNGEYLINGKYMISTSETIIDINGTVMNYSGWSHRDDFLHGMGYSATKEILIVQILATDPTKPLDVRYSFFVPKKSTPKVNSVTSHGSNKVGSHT

T3: Catalytic domain of human MMP-1 (MMP-1cat) (human, UniProt P03956 100-269)
T3 sequence (looked up): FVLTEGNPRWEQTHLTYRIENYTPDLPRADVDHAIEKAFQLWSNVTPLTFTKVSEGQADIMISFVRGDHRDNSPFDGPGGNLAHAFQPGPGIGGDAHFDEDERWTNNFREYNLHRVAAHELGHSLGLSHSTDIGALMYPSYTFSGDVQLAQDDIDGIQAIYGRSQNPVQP


Tests used:
Test in all cases: enzyme inhibition kinetics
[1] = target: T1, ADAMTS4-2 (human ADAMTS-4 deletion …)
[2] = target: T2, ADAMTS5-2 (human ADAMTS-5 deletion …)
[3] = target: T3, Catalytic domain of human MMP-1 …
[4] = target: Catalytic domain of human MMP-3 (MMP-3cat) (human, UniProt P08254 100-272)
Chain of Catalytic domain of human MMP-3 (MMP-3cat) (P08254 100-272): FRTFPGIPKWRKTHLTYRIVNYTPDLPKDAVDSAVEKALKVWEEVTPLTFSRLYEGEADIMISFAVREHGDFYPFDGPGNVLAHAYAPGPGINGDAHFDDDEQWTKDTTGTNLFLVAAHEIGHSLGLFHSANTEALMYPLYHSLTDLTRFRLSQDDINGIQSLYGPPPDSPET

Row | Binder | Ki [1] [nM] | Ki [2] [nM] | Ki [3] [nM] | Ki [4] [nM]
1 | Non-glycosylated full-length human TIMP-3, FLAG-tagged, from HEK293 cells treated with tunicamycin (natural protein, UniProt P35625 24-211, looked up) CTCSPSHPQDAFCNSDIVIRAKVVGKKLVKEGPFGTLVYTIKQMKMYRGFTKMPHVQYIHTEASESLCGLKLEVNKYQYLLTGRVYDGKMYTGLCNFVERWDQLTLSQRKGLNYRYHLGCNCKIKSCYYLPCFVTSKNECLWTDMLSNFGYPGYQSKHYACIRQKGGYCSWYRGWAPPDKSIINATDP | 0.2 | 1.37 | – | –
2 | N-terminal domain of human TIMP-3 with C-terminal His-tag, expressed in Escherichia coli and folded in vitro (domain or fragment, UniProt P35625 24-144, looked up) CTCSPSHPQDAFCNSDIVIRAKVVGKKLVKEGPFGTLVYTIKQMKMYRGFTKMPHVQYIHTEASESLCGLKLEVNKYQYLLTGRVYDGKMYTGLCNFVERWDQLTLSQRKGLNYRYHLGCN | 0.79 | 0.32 | 0.8 | 11.1
